Measurements published in US20140134202A1 (FOLIA BIOTECH, published 2014).

Biological target: the molecule itself
Test: gel filtration (Superdex 200), self-association into disks

B1: CP.DELTA.N5 PapMV coat protein (recombinant, N-terminal 5 amino acids deleted, alanine inserted at p (other)
chain: MASTPNIAFPAITQEQMSSIKVDPTSNLLPSQEQLKSVSTLMVAAKVPAASVTTVALELVNFCYDNGSSAYTTVTGPSSIPEISLAQLASIVKASGTSLRKFCRYFAPIIWNLRTDKMAPANWEASGYKPSAKFAAFDFFDGVENPAAMQPPSGLTRSPTQEERIANATNKQVHLFQAAAQDNNFASNSAFITKGQISGSTPTIQFLPPPE
notes: also called CPΔN5; CPΔN5 PapMV VLP
Q: Does B1 bind?
A: binds
